Reference: PMC12669767
Positions count from the first letter of the chain named.

T1: NEDD4L, endogenous in HEK293T, Q96PU5
T1 chain: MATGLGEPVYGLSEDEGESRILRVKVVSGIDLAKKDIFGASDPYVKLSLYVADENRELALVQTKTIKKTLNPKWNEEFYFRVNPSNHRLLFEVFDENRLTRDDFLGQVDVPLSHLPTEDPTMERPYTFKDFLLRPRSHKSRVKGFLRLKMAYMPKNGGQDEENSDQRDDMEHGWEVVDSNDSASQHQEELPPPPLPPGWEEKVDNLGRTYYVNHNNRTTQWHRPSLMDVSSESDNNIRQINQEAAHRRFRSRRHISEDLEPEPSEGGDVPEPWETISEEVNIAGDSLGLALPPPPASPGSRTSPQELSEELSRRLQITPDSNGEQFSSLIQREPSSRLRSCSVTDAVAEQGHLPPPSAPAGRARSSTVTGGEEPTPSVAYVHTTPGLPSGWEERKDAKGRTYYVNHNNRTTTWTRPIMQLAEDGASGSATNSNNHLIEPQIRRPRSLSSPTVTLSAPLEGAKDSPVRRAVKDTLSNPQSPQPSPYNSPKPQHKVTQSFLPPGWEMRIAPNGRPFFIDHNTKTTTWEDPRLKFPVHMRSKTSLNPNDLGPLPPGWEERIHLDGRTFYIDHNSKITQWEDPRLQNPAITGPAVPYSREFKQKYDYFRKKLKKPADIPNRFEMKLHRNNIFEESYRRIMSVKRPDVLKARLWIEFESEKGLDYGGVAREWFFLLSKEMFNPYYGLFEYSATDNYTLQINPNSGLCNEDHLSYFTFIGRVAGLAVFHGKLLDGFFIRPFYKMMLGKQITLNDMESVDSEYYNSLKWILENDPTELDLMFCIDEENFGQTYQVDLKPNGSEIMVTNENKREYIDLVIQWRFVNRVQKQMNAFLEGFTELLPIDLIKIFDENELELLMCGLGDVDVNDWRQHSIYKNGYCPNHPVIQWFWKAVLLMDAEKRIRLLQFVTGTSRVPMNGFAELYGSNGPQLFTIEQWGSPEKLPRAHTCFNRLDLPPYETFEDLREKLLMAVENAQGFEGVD

T2: HECW1, endogenous in HEK293T, Q76N89
T2 chain: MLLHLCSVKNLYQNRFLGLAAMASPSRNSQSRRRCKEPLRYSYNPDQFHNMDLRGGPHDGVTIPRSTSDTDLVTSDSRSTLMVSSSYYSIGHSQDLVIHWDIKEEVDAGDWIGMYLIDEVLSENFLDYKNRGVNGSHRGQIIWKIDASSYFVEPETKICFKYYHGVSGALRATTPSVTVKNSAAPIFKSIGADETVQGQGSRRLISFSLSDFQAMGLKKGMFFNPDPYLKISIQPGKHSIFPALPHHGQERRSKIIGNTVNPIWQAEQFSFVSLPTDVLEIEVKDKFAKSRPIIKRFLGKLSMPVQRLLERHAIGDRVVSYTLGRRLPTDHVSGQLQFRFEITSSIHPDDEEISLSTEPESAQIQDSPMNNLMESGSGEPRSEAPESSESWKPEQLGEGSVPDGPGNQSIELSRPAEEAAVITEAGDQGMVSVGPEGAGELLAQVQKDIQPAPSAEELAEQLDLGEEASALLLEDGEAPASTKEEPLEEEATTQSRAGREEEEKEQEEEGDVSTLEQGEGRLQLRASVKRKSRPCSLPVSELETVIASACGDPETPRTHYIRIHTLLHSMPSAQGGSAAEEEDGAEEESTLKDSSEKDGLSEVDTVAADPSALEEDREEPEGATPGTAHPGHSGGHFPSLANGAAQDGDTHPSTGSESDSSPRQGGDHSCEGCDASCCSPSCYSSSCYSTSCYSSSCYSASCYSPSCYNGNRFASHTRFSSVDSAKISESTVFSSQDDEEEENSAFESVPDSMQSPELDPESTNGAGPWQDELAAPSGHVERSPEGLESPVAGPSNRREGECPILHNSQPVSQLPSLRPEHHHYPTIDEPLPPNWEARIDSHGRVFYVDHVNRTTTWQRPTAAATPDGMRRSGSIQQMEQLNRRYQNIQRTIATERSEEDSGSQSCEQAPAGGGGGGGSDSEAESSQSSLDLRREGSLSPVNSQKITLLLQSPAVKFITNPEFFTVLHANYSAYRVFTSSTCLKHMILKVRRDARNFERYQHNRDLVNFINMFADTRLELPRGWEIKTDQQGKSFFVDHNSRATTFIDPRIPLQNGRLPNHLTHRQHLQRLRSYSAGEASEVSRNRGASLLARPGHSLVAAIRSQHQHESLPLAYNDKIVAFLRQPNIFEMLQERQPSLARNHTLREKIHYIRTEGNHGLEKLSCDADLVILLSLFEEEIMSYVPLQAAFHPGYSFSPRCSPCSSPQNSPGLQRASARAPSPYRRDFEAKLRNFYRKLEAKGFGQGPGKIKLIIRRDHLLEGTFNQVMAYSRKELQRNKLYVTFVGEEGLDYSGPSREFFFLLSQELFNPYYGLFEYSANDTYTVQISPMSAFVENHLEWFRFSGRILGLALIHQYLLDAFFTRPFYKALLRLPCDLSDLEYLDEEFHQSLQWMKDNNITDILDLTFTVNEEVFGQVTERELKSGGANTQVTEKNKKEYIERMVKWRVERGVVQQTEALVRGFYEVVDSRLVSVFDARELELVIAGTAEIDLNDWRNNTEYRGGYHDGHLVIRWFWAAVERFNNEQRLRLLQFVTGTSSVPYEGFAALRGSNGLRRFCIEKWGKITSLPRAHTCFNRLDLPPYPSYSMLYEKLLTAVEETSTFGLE

B1: ALFA-tagged TXNIP (thioredoxin interacting protein), expressed in HEK293T, Q9H3M7 PPCY331AACA (protein)
chain: MVMFKKIKSFEVVFNDPEKVYGSGEKVAGRVIVEVCEVTRVKAVRILACGVAKVLWMQGSQQCKQTSEYLRYEDTLLLEDQPTGENEMVIMRPGNKYEYKFGFELPQGPLGTSFKGKYGCVDYWVKAFLDRPSQPTQETKKNFEVVDLVDVNTPDLMAPVSAKKEKKVSCMFIPDGRVSVSARIDRKGFCEGDEISIHADFENTCSRIVVPKAAIVARHTYLANGQTKVLTQKLSSVRGNHIISGTCASWRGKSLRVQKIRPSILGCNILRVEYSLLIYVSVPGSKKVILDLPLVIGSRSGLSSRTSSMASRTSSEMSWVDLNIPDTPEAAACAMDVIPEDHRLESPTTPLLDDMDGSQDSPIFMYAPEFKFMPPPTYTEVDPCILNNNVQ
B2: ALFA-tagged TXNIP (thioredoxin interacting protein), expressed in HEK293T, Q9H3M7 PPCY331AACA; PPTY375AATA (protein)
chain: B1 chain with P375A, P376A, Y378A

Tests used:
[1] = target: T1, NEDD4L, endogenous in HEK293T, Q96PU5; experiment: co-immunoprecipitation of ALFA-TXNIP, label-free quantitative interactome (mass spectrometry); settings: chain shown with the change, immunoprecipitated from HEK293T cells, n = 3, read off a plot; for response: histogram, parent: est. 1.1e10
[2] = target: T2, HECW1, endogenous in HEK293T, Q76N89; experiment: as above; settings: chain shown with the change, immunoprecipitated from HEK293T cells, n = 3, read off a plot
[3] = abundances normalized to unspecific background binding to empty beads

| Binder | response [1, 3] [abundance] | other: log2 PPxY331/WT [1] [log2] | other: log2 PPxY331/WT [2] [log2] | response (normalized abundance) ([1]; abundances normalized to unspecific background binding to empty beads, scatter plot, parent: est. 1.0e10) | other: log2 PPxY/WT ([1]; volcano plot) [log2] | other: log2 PPxY/WT ([2]; volcano plot) [log2] |
| --- | --- | --- | --- | --- | --- | --- |
| B1 | 6.6e+09 | -0.7 | -6.5 | – | – | – |
| B2 | 3.8e+09 | – | – | 4e+09 | -1.5 | -6.6 |
